Reference: IntAct's records for PubMed 25910212

B1: DNA mismatch repair protein Mlh1 (Homo sapiens), P40692 (parent)
chain: MSFVAGVIRRLDETVVNRIAAGEVIQRPANAIKEMIENCLDAKSTSIQVIVKEGGLKLIQIQDNGTGIRKEDLDIVCERFTTSKLQSFEDLASISTYGFRGEALASISHVAHVTITTKTADGKCAYRASYSDGKLKAPPKPCAGNQGTQITVEDLFYNIATRRKALKNPSEEYGKILEVVGRYSVHNAGISFSVKKQGETVADVRTLPNASTVDNIRSIFGNAVSRELIEIGCEDKTLAFKMNGYISNANYSVKKCIFLLFINHRLVESTSLRKAIETVYAAYLPKNTHPFLYLSLEISPQNVDVNVHPTKHEVHFLHEESILERVQQHIESKLLGSNSSRMYFTQTLLPGLAGPSGEMVKSTTSLTSSSTSGSSDKVYAHQMVRTDSREQKLDAFLQPLSKPLSSQPQAIVTEDKTDISSGRARQQDEEMLELPAPAEVAAKNQSLEGDTTKGTSEMSEKRGPTSSNPRKRHREDSDVEMVEDDSRKEMTAACTPRRRIINLTSVLSLQEEINEQGHEVLREMLHNHSFVGCVNPQWALAQHQTKLYLLNTTKLSEELFYQILIYDFANFGVLRLSEPAPLFDLAMLALDSPESGWTEEDGPKEGLAEYIVEFLKKKAEMLADYFSLEIDEEGNLIGLPLLIDNYVPPLEGLPIFILRLATEVNWDEEKECFESLSKECAMFYSIRKQYISEESTLSGQQSEVPGSIPNSWKWTVEHIVYKALRSHILPPKHFTEDGNILQLANLPDLYKVFERC
partner: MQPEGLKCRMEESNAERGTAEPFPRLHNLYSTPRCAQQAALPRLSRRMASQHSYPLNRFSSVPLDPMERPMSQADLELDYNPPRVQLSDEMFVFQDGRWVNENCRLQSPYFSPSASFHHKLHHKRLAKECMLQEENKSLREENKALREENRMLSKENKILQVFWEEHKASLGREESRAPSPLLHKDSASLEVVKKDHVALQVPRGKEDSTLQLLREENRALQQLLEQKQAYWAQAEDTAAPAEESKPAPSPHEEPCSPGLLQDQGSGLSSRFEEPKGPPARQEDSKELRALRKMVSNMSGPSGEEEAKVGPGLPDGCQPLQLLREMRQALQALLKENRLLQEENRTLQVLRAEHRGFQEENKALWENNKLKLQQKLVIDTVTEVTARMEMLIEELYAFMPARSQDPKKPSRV
B2: ATP synthase mitochondrial F1 complex assembly factor 2 (Homo sapiens), Q8N5M1 (parent)
chain: MWRSCLRLRDGGRRLLNRPAGGPSASMSPGPTIPSPARAYAPPTERKRFYQNVSITQGEGGFEINLDHRKLKTPQAKLFTVPSEALAIAVATEWDSQQDTIKYYTMHLTTLCNTSLDNPTQRNKDQLIRAAVKFLDTDTICYRVEEPETLVELQRNEWDPIIEWAEKRYGVEISSSTSIMGPSIPAKTREVLVSHLASYNTWALQGIEFVAAQLKSMVLTLGLIDLRLTVEQAVLLSRLEEEYQIQKWGNIEWAHDYELQELRARTAAGTLFIHLCSESTTVKHKLLKE
partner: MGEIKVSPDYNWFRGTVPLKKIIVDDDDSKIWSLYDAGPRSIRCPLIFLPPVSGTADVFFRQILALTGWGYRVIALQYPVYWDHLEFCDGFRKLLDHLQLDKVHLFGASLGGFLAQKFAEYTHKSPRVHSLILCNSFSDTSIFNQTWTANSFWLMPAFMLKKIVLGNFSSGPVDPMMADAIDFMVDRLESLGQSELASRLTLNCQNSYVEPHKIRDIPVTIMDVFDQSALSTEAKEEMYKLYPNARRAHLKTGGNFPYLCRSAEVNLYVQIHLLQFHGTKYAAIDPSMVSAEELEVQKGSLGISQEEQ
B3: ATP synthase mitochondrial F1 complex assembly factor 2 (Homo sapiens), Q8N5M1 (parent)
chain: B2 chain
partner: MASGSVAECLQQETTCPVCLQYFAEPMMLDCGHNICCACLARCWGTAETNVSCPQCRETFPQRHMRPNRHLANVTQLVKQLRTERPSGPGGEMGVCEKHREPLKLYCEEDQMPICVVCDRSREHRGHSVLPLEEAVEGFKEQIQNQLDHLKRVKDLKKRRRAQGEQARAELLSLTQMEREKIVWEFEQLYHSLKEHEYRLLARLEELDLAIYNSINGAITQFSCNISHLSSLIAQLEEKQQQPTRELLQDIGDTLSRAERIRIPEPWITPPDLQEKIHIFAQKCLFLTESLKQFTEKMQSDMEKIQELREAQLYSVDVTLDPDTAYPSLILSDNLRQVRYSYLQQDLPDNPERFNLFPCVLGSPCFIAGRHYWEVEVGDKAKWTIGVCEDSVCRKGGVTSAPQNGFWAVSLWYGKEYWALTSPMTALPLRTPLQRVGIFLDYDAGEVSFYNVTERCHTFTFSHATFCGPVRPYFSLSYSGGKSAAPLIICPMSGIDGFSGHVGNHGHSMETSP
B4: 2'-5'-oligoadenylate synthase 1 (Homo sapiens), P00973-2 (parent)
chain: MMDLRNTPAKSLDKFIEDYLLPDTCFRMQINHAIDIICGFLKERCFRGSSYPVCVSKVVKGGSSGKGTTLRGRSDADLVVFLSPLTTFQDQLNRRGEFIQEIRRQLEACQRERAFSVKFEVQAPRWGNPRALSFVLSSLQLGEGVEFDVLPAFDALGQLTGGYKPNPQIYVKLIEECTDLQKEGEFSTCFTELQRDFLKQRPTKLKSLIRLVKHWYQNCKKKLGKLPPQYALELLTVYAWERGSMKTHFNTAQGFRTVLELVINYQQLCIYWTKYYDFKNPIIEKYLRRQLTKPRPVILDPADPTGNLGGGDPKGWRQLAQEAEAWLNYPCFKNWDGSPVSSWILLVRPPASSLPFIPAPLHEA
partner: B3 partner
B5: PiggyBac transposable element-derived protein 1 (Homo sapiens), Q96JS3 (parent)
chain: MYEALPGPAPENEDGLVKVKEEDPTWEQVCNSQEGSSHTQEICRLRFRHFCYQEAHGPQEALAQLRELCHQWLRPEMHTKEQIMELLVLEQFLTILPKELQPCVKTYPLESGEEAVTVLENLETGSGDTGQQASVYIQGQDMHPMVAEYQGVSLECQSLQLLPGITTLKCEPPQRPQGNPQEVSGPVPHGSAHLQEKNPRDKAVVPVFNPVRSQTLVKTEEETAQAVAAEKWSHLSLTRRNLCGNSAQETVMSLSPMTEEIVTKDRLFKAKQETSEEMEQSGEASGKPNRECAPQIPCSTPIATERTVAHLNTLKDRHPGDLWARMHISSLEYAAGDITRKGRKKDKARVSELLQGLSFSGDSDVEKDNEPEIQPAQKKLKVSCFPEKSWTKRDIKPNFPSWSALDSGLLNLKSEKLNPVELFELFFDDETFNLIVNETNNYASQKNVSLEVTVQEMRCVFGVLLLSGFMRHPRREMYWEVSDTDQNLVRDAIRRDRFELIFSNLHFADNGHLDQKDKFTKLRPLIKQMNKNFLLYAPLEEYYCFDKSMCECFDSDQFLNGKPIRIGYKIWCGTTTQGYLVWFEPYQEESTMKVDEDPDLGLGGNLVMNFADVLLERGQYPYHLCFDSFFTSVKLLSALKKKGVRATGTIRENRTEKCPLMNVEHMKKMKRGYFDFRIEENNEIILCRWYGDGIISLCSNAVGIEPVNEVSCCDADNEEIPQISQPSIVKVYDECKEGVAKMDQIISKYRVRIRSKKWYSILVSYMIDVAMNNAWQLHRACNPGASLDPLDFRRFVAHFYLEHNAHLSD
partner: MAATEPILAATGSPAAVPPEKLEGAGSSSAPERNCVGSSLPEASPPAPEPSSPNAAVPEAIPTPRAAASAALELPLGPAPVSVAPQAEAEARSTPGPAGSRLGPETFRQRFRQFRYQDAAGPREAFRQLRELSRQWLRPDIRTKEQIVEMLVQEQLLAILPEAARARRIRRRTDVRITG
B6: Inactive peptidyl-prolyl cis-trans isomerase FKBP6 (Homo sapiens), O75344 (parent)
chain: MGGSALNQGVLEGDDAPGQSLYERLSQRMLDISGDRGVLKDVIREGAGDLVAPDASVLVKYSGYLEHMDRPFDSNYFRKTPRLMKLGEDITLWGMELGLLSMRRGELARFLFKPNYAYGTLGCPPLIPPNTTVLFEIELLDFLDCAESDKFCALSAEQQDQFPLQKVLKVAATEREFGNYLFRQNRFYDAKVRYKRALLLLRRRSAPPEEQHLVEAAKLPVLLNLSFTYLKLDRPTIALCYGEQALIIDQKNAKALFRCGQACLLLTEYQKARDFLVRAQKEQPFNHDINNELKKLASCYRDYVDKEKEMWHRMFAPCGDGSTAGES
partner: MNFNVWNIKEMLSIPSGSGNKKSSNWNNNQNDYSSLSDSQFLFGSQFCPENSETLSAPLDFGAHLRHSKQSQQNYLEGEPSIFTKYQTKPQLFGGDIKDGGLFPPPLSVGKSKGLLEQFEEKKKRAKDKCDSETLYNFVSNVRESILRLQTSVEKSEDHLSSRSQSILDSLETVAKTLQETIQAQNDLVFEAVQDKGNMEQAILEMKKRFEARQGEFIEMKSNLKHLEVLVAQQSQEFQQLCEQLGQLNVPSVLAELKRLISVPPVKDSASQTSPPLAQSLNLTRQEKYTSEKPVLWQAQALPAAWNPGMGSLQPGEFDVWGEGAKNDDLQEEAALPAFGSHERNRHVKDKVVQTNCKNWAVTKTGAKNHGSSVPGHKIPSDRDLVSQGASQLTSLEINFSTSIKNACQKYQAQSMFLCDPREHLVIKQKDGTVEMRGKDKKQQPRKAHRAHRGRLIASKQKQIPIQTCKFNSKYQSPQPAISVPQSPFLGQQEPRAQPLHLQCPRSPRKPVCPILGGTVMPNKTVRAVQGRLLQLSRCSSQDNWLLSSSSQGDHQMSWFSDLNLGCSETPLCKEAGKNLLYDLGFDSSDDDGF
B7: EF-hand domain-containing protein 1 (Homo sapiens), Q5JVL4 (parent)
chain: MVSNPVHGLPFLPGTSFKDSTKTAFHRSQTLSYRNGYAIVRRPTVGIGGDRLQFNQLSQAELDELASKAPVLTYGQPKQAPPADFIPAHVAFDKKVLKFDAYFQEDVPMSTEEQYRIRQVNIYYYLEDDSMSVIEPVVENSGILQGKLIKRQRLAKNDRGDHYHWKDLNRGINITIYGKTFRVVDCDQFTQVFLESQGIELNPPEKMALDPYTELRKQPLRKYVTPSDFDQLKQFLTFDKQVLRFYAIWDDTDSMYGECRTYIIHYYLMDDTVEIREVHERNDGRDPFPLLMNRQRVPKVLVENAKNFPQCVLEISDQEVLEWYTAKDFIVGKSLTILGRTFFIYDCDPFTRRYYKEKFGITDLPRIDVSKREPPPVKQELPPYNGFGLVEDSAQNCFALIPKAPKKDVIKMLVNDNKVLRYLAVLESPIPEDKDRRFVFSYFLATDMISIFEPPVRNSGIIGGKYLGRTKVVKPYSTVDNPVYYGPSDFFIGAVIEVFGHRFIILDTDEYVLKYMESNAAQYSPEALASIQNHVRKREAPAPEAESKQTEKDPGVQELEALIDTIQKQLKDHSCKDNIREAFQIYDKEASGYVDRDMFFKICESLNVPVDDSLVKELIRMCSHGEGKINYYNFVRAFSN
partner: B6 partner
B8: Forkhead box protein P3 (Homo sapiens), Q9BZS1 (parent)
chain: MPNPRPGKPSAPSLALGPSPGASPSWRAAPKASDLLGARGPGGTFQGRDLRGGAHASSSSLNPMPPSQLQLPTLPLVMVAPSGARLGPLPHLQALLQDRPHFMHQLSTVDAHARTPVLQVHPLESPAMISLTPPTTATGVFSLKARPGLPPGINVASLEWVSREPALLCTFPNPSAPRKDSTLSAVPQSSYPLLANGVCKWPGCEKVFEEPEDFLKHCQADHLLDEKGRAQCLLQREMVQSLEQQLVLEKEKLSAMQAHLAGKMALTKASSVASSDKGSCCIVAAGSQGPVVPAWSGPREAPDSLFAVRRHLWGSHGNSTFPEFLHNMDYFKFHNMRPPFTYATLIRWAILEAPEKQRTLNEIYHWFTRMFAFFRNHPATWKNAIRHNLSLHKCFVRVESEKGAVWTVDELEFRKKRSQRPSRCSNPTPGP

Variants of: B1
Details: with CBY2, Q8NA61-2

| Variant | effect of a mutation on the interaction |
| --- | --- |
| S44F | disrupting interaction strength |

Variants of: B2
Details: with spg21_human SPG21, Q9NZD8

| Variant | effect of a mutation on the interaction |
| --- | --- |
| W94R | disrupting interaction strength |

Variants of: B3
Details: with tri27_human TRIM27, P14373

| Variant | effect of a mutation on the interaction |
| --- | --- |
| W94R | disrupting interaction strength |

Variants of: B4
Details: with tri27_human TRIM27, P14373

| Variant | effect of a mutation on the interaction |
| --- | --- |
| R242Q | with no effect |

Variants of: B5
Details: with scnd1_human SCAND1, P57086

| Variant | effect of a mutation on the interaction |
| --- | --- |
| P256L | with no effect |
| G244E | with no effect |
| Q248E | with no effect |

Variants of: B6
Details: with iho1_human IHO1, Q8IYA8

| Variant | effect of a mutation on the interaction |
| --- | --- |
| R202H | with no effect |
| F72L | with no effect |

Variants of: B7
Details: with iho1_human IHO1, Q8IYA8

| Variant | effect of a mutation on the interaction |
| --- | --- |
| M448T | with no effect |
| R159W | with no effect |
| P77T | disrupting interaction strength |
| R221H | disrupting interaction strength |
| A394S | disrupting interaction strength |
| T508R | disrupting interaction strength |

Variants of: B8
Details: with RBPMS

| Variant | effect of a mutation on the interaction |
| --- | --- |
| G52V | with no effect |
| I363V | disrupting interaction strength |
| P187L | with no effect |
| Q70H | disrupting interaction strength |

Variants of: B8
Details: with pr20e_human PRR20E

| Variant | effect of a mutation on the interaction |
| --- | --- |
| G52V | with no effect |
| I363V | disrupting interaction strength |
| P187L | with no effect |
| Q70H | disrupting interaction strength |
